Laboratory results reported in PMC8771699 (ACS Omega, 2022).

Test: FE-SEM self-assembly
Assay type: physicochemical
Settings: HEPES pH 7.4, porphyrin 1.15 × 10^–3 M, peptide 2.3 × 10^–3 M, time of incubation 7 days

## RGDSGAITIGH [RGDSGAITIGH + Py3P-Lys-NTA + Ni^2+]
  self-assembled nanostructure morphology: porous fibrillar network
